Earlier results, collected in patent publication US20050255458A1, “Drug discovery assays based on the biology of chronic disease” (priority 2002, published 2005).

B1: IL-1α: interleukin 1α cytokine (protein, UniProt P01583 113-271, looked up)
Interleukin-1 alpha: SAPFSFLSNVKYNFMRIIKYEFILNDALNQSIIRANDQYLTAAALHNLDEAVKFDMGAYKSSKDDAKITVILRISKTQLYVTAQDEDQPVLLKEMPEIPKTITGSETNLLFFWETHGTKNYFTSVAHPNLFIATKQDYWVCLAGGPPSITDFQILENQA
B2: soluble TF: soluble tissue factor (protein, UniProt P13726 33-251, looked up)
extracellular domain: SGTTNTVAAYNLTWKSTNFKTILEWEPKPVNQVYTVQISTKSGDWKSKCFYTTDTECDLTDEIVKDVKQTYLARVFSYPAGNVESTGSAGEPLYENSPEFTPYLETNLGQPTIQSFEQVGTKVNVTVEDERTLVRRNNTFLSLRDVFGKDLIYTLYYWKSSSSGKKTAKTNTNEFLIDVDKGENYCFSVQAVIPSRTVNRKSTDSPVECMGQEKGEFRE
modifications: extracellular domain
notes: soluble tissue factor

Experiments:
anagen hair follicles = details: Philpott 1996
[1] = system: reverse transmigration of PBMC across HUVEC

Molecule | scalp hair growth (anagen hair follicles) | inhibition of reverse transendothelial migration [1] [%]
B1 | inhibition of scalp hair growth | –
B2 | – | 69±2
